This is an account of results in US20240018260A1 (AMUNIX PHARMACEUTICALS, published 2024).

The target of assay [1] is T1, human EpCAM on EpCAM positive human carcinoma cells (SW480, SK-OV-3) (human, UniProt P16422 24-314).
T1 sequence (looked up): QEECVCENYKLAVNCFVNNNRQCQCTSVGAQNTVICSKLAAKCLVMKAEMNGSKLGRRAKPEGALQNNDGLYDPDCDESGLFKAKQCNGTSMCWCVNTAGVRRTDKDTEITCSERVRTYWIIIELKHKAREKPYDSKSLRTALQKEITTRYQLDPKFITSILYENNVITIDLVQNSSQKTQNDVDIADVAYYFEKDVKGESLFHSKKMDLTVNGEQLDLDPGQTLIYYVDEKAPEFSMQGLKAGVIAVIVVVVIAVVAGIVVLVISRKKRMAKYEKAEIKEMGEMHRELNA
Description: cell-based or functional assay.

Assay [2] concerns the target human CD3 on purified human CD3 positive T cells (human, UniProt P07766 23-207). The assay is described as follows: cell-based or functional assay.
Assay [3] concerns the target T2, recombinant human CD3 (rhCD3εδ) (human, UniProt P07766 23-126; P04234 22-105).
T2 chain: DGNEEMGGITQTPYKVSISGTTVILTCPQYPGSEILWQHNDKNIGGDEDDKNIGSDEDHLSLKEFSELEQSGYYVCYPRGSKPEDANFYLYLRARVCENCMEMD
The assay is described as follows: sandwich ELISA: rhCD3εδ coated on plate, detection with peroxidase-conjugated protein L.

Assay [4] deals with T3, recombinant human EpCAM (rhEpCAM) (human, UniProt P16422 24-265).
T3 construct: Bought recombinant protein coated on the ELISA plate
T3 sequence (looked up): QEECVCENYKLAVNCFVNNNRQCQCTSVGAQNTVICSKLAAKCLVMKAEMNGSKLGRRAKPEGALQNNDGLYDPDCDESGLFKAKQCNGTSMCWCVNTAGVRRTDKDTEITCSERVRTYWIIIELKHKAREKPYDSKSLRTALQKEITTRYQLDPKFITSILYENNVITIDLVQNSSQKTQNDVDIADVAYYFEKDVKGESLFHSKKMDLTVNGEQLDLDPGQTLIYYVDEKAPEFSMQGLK
Description: sandwich ELISA: rhEpCAM coated on plate, detection with peroxidase-conjugated protein L. How it is done:
The binding capability of anti-EpCAM×anti-CD3 ProTIA composition was verified with an EpCAM/peroxidase-conjugated protein-L sandwich ELISA. In the ELISA binding assay, recombinant human EpCAM (rhEpCAM) (Sino BiologicalR&D Systems cat #10694-H08H960-EP-50) was coated on a 96-well, flat-bottomed plate at a concentration of 0.1 microg/100 microL. After overnight incubation at 4° C., the assay plate was washed and blocked with 3% bovine serum albumin (BSA) for 1 h at room temperature. The plate was washed again followed by the introduction of a dose range of non-cleavable anti-EpCAM×anti-CD3 ProTIA (i.e., a ProTIA without the release segment cleavage sequence and AC1484, a ProTIA chimeric polypeptide assembly composition) and protease-treated and protease-untreated anti-EpCAM×anti-CD3 ProTIA (e.g. AC1476). The dose range utilized for non-cleavable and protease-treated and untreated ProTIA was 0.0006 to 5 nM, achieved with a 1:6 fold serial dilution scheme from a starting concentration of 5 nM. The plate was allowed to incubate with shaking for 1 h at room temperature to allow the non-cleavable, protease-cleaved and uncleaved ProTIA to bind to the rhEpCAM coated on the plate. Unbound components were removed with a wash step and a peroxidase-conjugated protein L (PierceThermoFisher Scientific cat #32420) was added. After an appropriate incubation period that allowed protein-L to bind to the kappa light of the scFvs, any unbound reagent was removed by a wash step followed by the addition of tetramethylbenzidine (TMB) substrate to each well. TMB is a chromogenic substrate of peroxidase. After desired color intensity was reached, 0.2 N sulfuric acid was added to stop the reaction and absorbance (OD) was measured at 450 nm using a spectrophotometer. The intensity of the color is proportional to the concentration of non-cleavable, protease-treated and untreated anti-EpCAM×anti-CD3 ProTIA captured by the rhEpCAM/protein-L sandwich ELISA. The intensity of the color produced (measured OD) was plotted against protein concentration; and the concentration of non-cleavable, protease-cleaved and uncleaved anti-EpCAM×anti-CD3 ProTIA that gave half-maximal response (EC₅₀) was derived with a 4-parameter logistic regression equation using GraphPad prism software.
On the technique in general: ELISA stands for enzyme-linked immunosorbent assay.

B1: AC1476 aEpCAM-aCD3-BSRS1-XTEN_AE864-His(6), protease-untreated (intact) anti-EpCAM×anti-CD3 ProTIA (bispecific antibody)
chain: DIQMTQSPSSLSASVGDRVTITCRSTKSLLHSNGITYLYWYQQKPGKAPKLLIYQMSNLASGVPSRFSSSGSGTDFTLTISSLQPEDFATYYCAQNLEIPRTFGQGTKVEIKGATPPETGAETESPGETTGGSAESEPPGEGQVQLVQSGPGLVQPGGSVRISCAASGYTFTNYGMNWVKQAPGKGLEWMGWINTYTGESTYADSFKGRFTFSLDTSASAAYLQINSLRAEDTAVYYCARFAIKGDYWGQGTLLTVSSGGGGSDIQMTQSPSSLSASVGDRVTITCRASQDIRNYLNWYQQKPGKAPKLLIYYTSRLESGVPSRFSGSGSGTDYTLTISSLQPEDFATYYCQQGNTLPWTFGQGTKVEIKGATPPETGAETESPGETTGGSAESEPPGEGEVQLVESGGGLVQPGGSLRLSCAASGYSFTGYTMNWVRQAPGKGLEWVALINPYKGVSTYNQKFKDRFTISVDKSKNTAYLQMNSLRAEDTAVYYCARSGYYGDSDWYFDVWGQGTLVTVSSGTAEAASASGLSGRSDNHSPLGLAGSPGSPAGSPTSTEEGTSESATPESGPGTSTEPSEGSAPGSPAGSPTSTEEGTSTEPSEGSAPGTSTEPSEGSAPGTSESATPESGPGSEPATSGSETPGSEPATSGSETPGSPAGSPTSTEEGTSESATPESGPGTSTEPSEGSAPGTSTEPSEGSAPGSPAGSPTSTEEGTSTEPSEGSAPGTSTEPSEGSAPGTSESATPESGPGTSTEPSEGSAPGTSESATPESGPGSEPATSGSETPGTSTEPSEGSAPGTSTEPSEGSAPGTSESATPESGPGTSESATPESGPGSPAGSPTSTEEGTSESATPESGPGSEPATSGSETPGTSESATPESGPGTSTEPSEGSAPGTSTEPSEGSAPGTSTEPSEGSAPGTSTEPSEGSAPGTSTEPSEGSAPGTSTEPSEGSAPGSPAGSPTSTEEGTSTEPSEGSAPGTSESATPESGPGSEPATSGSETPGTSESATPESGPGSEPATSGSETPGTSESATPESGPGTSTEPSEGSAPGTSESATPESGPGSPAGSPTSTEEGSPAGSPTSTEEGSPAGSPTSTEEGTSESATPESGPGTSTEPSEGSAPGTSESATPESGPGSEPATSGSETPGTSESATPESGPGSEPATSGSETPGTSESATPESGPGTSTEPSEGSAPGSPAGSPTSTEEGTSESATPESGPGSEPATSGSETPGTSESATPESGPGSPAGSPTSTEEGSPAGSPTSTEEGTSTEPSEGSAPGTSESATPESGPGTSESATPESGPGTSESATPESGPGSEPATSGSETPGSEPATSGSETPGSPAGSPTSTEEGTSTEPSEGSAPGTSTEPSEGSAPGSEPATSGSETPGTSESATPESGPGTSTEPSEGSAPGHHHHHH
notes: also called ProTIA-X; protease-untreated anti-EpCAM×anti-CD3 ProTIA
A word on the EC50: it is the concentration giving half of the maximal effect. Take B1: the “EC50, LDH release cytotoxicity, PBMC:SK-OV-3 5:1” value in assay [1] is 0.136 nM. In assay [2], the “EC50, LDH release cytotoxicity, purified human CD3 positive T cells:OVCAR-3 5:1” value was determined as 0.0007 nM and the “EC50, LDH release cytotoxicity, purified human CD3 positive T cells:SK-OV-3 5:1” value turned out to be 0.134 nM. In assay [3], the EC50 came out at 1.8 nM; the “fold hindrance of binding by XTEN864, against the cleaved and released anti-CD3scFv portion” value was approximately 5.8 fold. Moreover, in assay [4], the concentration giving a half-maximal response (EC50) is 0.28 nM and the “fold hindrance of binding by XTEN864, against protease-treated ProTIA” value is not below 2.3 fold.

B2: AC1484, non-cleavable anti-EpCAM×anti-CD3 ProTIA (without the release segment cleavage sequence) (bispecific antibody)
chain: DIQMTQSPSSLSASVGDRVTITCRSTKSLLHSNGITYLYWYQQKPGKAPKLLIYQMSNLASGVPSRFSSSGSGTDFTLTISSLQPEDFATYYCAQNLEIPRTFGQGTKVEIKGATPPETGAETESPGETTGGSAESEPPGEGQVQLVQSGPGLVQPGGSVRISCAASGYTFTNYGMNWVKQAPGKGLEWMGWINTYTGESTYADSFKGRFTFSLDTSASAAYLQINSLRAEDTAVYYCARFAIKGDYWGQGTLLTVSSGGGGSDIQMTQSPSSLSASVGDRVTITCRASQDIRNYLNWYQQKPGKAPKLLIYYTSRLESGVPSRFSGSGSGTDYTLTISSLQPEDFATYYCQQGNTLPWTFGQGTKVEIKGATPPETGAETESPGETTGGSAESEPPGEGEVQLVESGGGLVQPGGSLRLSCAASGYSFTGYTMNWVRQAPGKGLEWVALINPYKGVSTYNQKFKDRFTISVDKSKNTAYLQMNSLRAEDTAVYYCARSGYYGDSDWYFDVWGQGTLVTVSSGSPGSPAGSPTSTEEGTSESATPESGPGTSTEPSEGSAPGSPAGSPTSTEEGTSTEPSEGSAPGTSTEPSEGSAPGTSESATPESGPGSEPATSGSETPGSEPATSGSETPGSPAGSPTSTEEGTSESATPESGPGTSTEPSEGSAPGTSTEPSEGSAPGSPAGSPTSTEEGTSTEPSEGSAPGTSTEPSEGSAPGTSESATPESGPGTSTEPSEGSAPGTSESATPESGPGSEPATSGSETPGTSTEPSEGSAPGTSTEPSEGSAPGTSESATPESGPGTSESATPESGPGSPAGSPTSTEEGTSESATPESGPGSEPATSGSETPGTSESATPESGPGTSTEPSEGSAPGTSTEPSEGSAPGTSTEPSEGSAPGTSTEPSEGSAPGTSTEPSEGSAPGTSTEPSEGSAPGSPAGSPTSTEEGTSTEPSEGSAPGTSESATPESGPGSEPATSGSETPGTSESATPESGPGSEPATSGSETPGTSESATPESGPGTSTEPSEGSAPGTSESATPESGPGSPAGSPTSTEEGSPAGSPTSTEEGSPAGSPTSTEEGTSESATPESGPGTSTEPSEGSAPGTSESATPESGPGSEPATSGSETPGTSESATPESGPGSEPATSGSETPGTSESATPESGPGTSTEPSEGSAPGSPAGSPTSTEEGTSESATPESGPGSEPATSGSETPGTSESATPESGPGSPAGSPTSTEEGSPAGSPTSTEEGTSTEPSEGSAPGTSESATPESGPGTSESATPESGPGTSESATPESGPGSEPATSGSETPGSEPATSGSETPGSPAGSPTSTEEGTSTEPSEGSAPGTSTEPSEGSAPGSEPATSGSETPGTSESATPESGPGTSTEPSEGSAPGHHHHHH
notes: also called non-cleavable ProTIA; protease-noncleavable anti-EpCAM×anti-CD3 ProTIA
Consider B2, for which the “EC50, LDH release cytotoxicity, PBMC:SK-OV-3 5:1” value in assay [1] was determined as 1.79 nM. Also, in assay [2], the “EC50, LDH release cytotoxicity, purified human CD3 positive T cells:OVCAR-3 5:1” value came out at 0.086 nM and the “EC50, LDH release cytotoxicity, purified human CD3 positive T cells:SK-OV-3 5:1” value stood at 2.66 nM. Further, in assay [3], the concentration for a half-maximal effect (EC50) is 2.2 nM. Also, the EC50 in assay [4] stood at 0.32 nM.
